According to US20110305750:

Test system: GST-MT1-MMP cytoplasmic tail fusion protein

Substance: recombinant Src kinase
- tyrosine phosphorylation of GST-MT in an in vitro phosphorylation assay (western blot): Src-mediated tyrosine phosphorylation of GST-MT
